Where “and” joins values, the source holds several entries; their conditions need not be identical. Equal values may be shown once.
Experiments:
[1] = molecular target: CAP256 gp140-FL-IP-His (HIV-1 subtype C (CAP256 SU)); assay: native gel or EMSA; NativePAGE Novex 3-12% Bis-Tris gels (BN-PAGE) of lectin-purified protein, Coomassie stain or anti-gp160 western blot; oligomer judged by molecular weight against NativeMark standard
[2] = molecular target: CAP256 SU gp140-FL-IP (HIV-1 subtype C (CAP256 SU)); assay: as above

Substance	stoichiometry N [1]	stoichiometry N [2]
CAP256 gp140-FL-IP-His (domain or fragment)	3 and 2	
CAP256 SU gp140-FL-IP (domain or fragment)		3

Source: paper PMC6296668
